# From IntAct's records for PubMed 19494828
# B1: Caspase-9 (Homo sapiens), P55211 (parent)
# chain: MDEADRRLLRRCRLRLVEELQVDQLWDALLSRELFRPHMIEDIQRAGSGSRRDQARQLIIDLETRGSQALPLFISCLEDTGQDMLASFLRTNRQAAKLSKPTLENLTPVVLRPEIRKPEVLRPETPRPVDIGSGGFGDVGALESLRGNADLAYILSMEPCGHCLIINNVNFCRESGLRTRTGSNIDCEKLRRRFSSLHFMVEVKGDLTAKKMVLALLELAQQDHGALDCCVVVILSHGCQASHLQFPGAVYGTDGCPVSVEKIVNIFNGTSCPSLGGKPKLFFIQACGGEQKDHGFEVASTSPEDESPGSNPEPDATPFQEGLRTFDQLDAISSLPTPSDIFVSYSTFPGFVSWRDPKSGSWYVETLDDIFEQWAHSEDLQSLLLRVANAVSVKGIYKQMPGCFNFLRKKLFFKTS
# Variants of: B1
# Conditions: with apaf_human APAF1, O14727
# Sequence of apaf_human APAF1, O14727 (O14727 whole entry): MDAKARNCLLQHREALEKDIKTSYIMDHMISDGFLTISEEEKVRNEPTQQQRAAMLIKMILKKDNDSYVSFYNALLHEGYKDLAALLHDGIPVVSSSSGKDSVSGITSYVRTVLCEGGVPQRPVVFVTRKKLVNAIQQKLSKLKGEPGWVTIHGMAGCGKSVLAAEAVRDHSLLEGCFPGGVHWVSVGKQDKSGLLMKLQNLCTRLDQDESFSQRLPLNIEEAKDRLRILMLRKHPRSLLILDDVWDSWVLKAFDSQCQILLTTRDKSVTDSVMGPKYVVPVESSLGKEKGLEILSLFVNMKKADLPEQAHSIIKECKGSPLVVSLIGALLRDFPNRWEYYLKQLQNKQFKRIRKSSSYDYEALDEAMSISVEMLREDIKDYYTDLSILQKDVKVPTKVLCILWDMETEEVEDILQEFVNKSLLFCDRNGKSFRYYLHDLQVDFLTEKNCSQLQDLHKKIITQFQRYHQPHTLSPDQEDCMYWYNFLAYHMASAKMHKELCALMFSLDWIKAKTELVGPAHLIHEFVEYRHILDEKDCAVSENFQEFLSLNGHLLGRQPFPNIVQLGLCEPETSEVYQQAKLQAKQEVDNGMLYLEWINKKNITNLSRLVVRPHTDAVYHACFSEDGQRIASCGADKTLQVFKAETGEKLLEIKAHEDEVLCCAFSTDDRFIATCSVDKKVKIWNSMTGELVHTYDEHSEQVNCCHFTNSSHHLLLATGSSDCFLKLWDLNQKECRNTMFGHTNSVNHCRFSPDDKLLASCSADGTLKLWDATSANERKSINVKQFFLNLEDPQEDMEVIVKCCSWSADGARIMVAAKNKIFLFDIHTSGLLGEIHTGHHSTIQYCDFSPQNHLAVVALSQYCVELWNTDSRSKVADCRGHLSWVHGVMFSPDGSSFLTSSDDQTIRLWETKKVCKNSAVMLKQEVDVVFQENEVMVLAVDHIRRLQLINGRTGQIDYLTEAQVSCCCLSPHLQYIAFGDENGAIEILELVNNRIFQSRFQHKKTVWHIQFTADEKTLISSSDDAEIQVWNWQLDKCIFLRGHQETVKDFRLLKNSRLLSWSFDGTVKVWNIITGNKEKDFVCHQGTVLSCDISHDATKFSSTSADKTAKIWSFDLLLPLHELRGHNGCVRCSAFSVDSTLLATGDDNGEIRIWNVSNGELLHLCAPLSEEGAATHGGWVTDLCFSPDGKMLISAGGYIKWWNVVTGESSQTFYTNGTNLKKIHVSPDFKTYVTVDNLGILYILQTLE
row,Variant,effect of a mutation on the interaction
1,R56A,disrupting interaction
